Source: US20200385482A1 (Dana-Farber, published 2020)

Experiments:
[1] = target: T1, human PD-L1 (hPD-L1) expressed on transfected 300.19 cells (human, UniProt Q9NZQ7 19-290); experiment: FACS, hPD-L1 300.19 cells, assay 1, Ab 1 ug/ml
T1 construct: whole, on cells; also called B7H1
Procedure: (§1) Binding analysis of huPD-L1 antibodies were performed using PD-L1-expressing cells. […] GF1538 and GF1757 antibodies were used as controls: GF1538 is a humanized Ab against hPD-L1, and GF1757 is a humanized Ab against hPD-L2. The secondary antibody utilized was PE-goat anti-human IgG. All values represent mean fluorescence intensity (GMFI), as detected by FACs analysis.

[2] = target: T1, human PD-L1 (hPD-L1) expressed on …; experiment: FACS, hPD-L1 300.19 cells, assay 2, Ab 0.01 ug/ml
Procedure: as §1

[3] = target: T1, human PD-L1 (hPD-L1) expressed on …; experiment: competition FACS, hPD-L1 300.19 cells, signal = bound hPD-1-mIgG2a, Ab 1 ug/ml
Procedure: (§2) A competitive FACS analysis was performed to characterize the inhibition of hPD1 binding to hPD-L1 by the soluble huPD-L1 antibodies of the present invention. […] In this assay, 50,000 cells expressing hPD-L1 were pre-incubated with the huPD-L1 or control antibodies for 30 minutes at the following concentrations: 10 μg/ml, 1 μg/ml, 0.1 μg/ml and 0.01 μg/ml. […] After 30 minutes of incubation, the cells were washed twice and then analyzed by FACS. MFI values from Table 20 are used to generate a percent inhibition of hPD1 binding with hPD-L1+ cells for FIG. 4.

[4] = target: T1, human PD-L1 (hPD-L1) expressed on …; experiment: FACS, hPD-L1 300.19 cells, assay 2, Ab approx 10 ug/ml
Procedure: as §1

[5] = target: T1, human PD-L1 (hPD-L1) expressed on …; experiment: FACS, hPD-L1 300.19 cells, assay 2, Ab 1 ug/ml
Procedure: as §1

[6] = target: T1, human PD-L1 (hPD-L1) expressed on …; experiment: FACS, hPD-L1 300.19 cells, assay 1, Ab 0.1 ug/ml
Procedure: as §1

[7] = target: T1, human PD-L1 (hPD-L1) expressed on …; experiment: FACS, hPD-L1 300.19 cells, assay 2, Ab 0.1 ug/ml
Procedure: as §1

[8] = target: T1, human PD-L1 (hPD-L1) expressed on …; experiment: FACS, hPD-L1 300.19 cells, assay 1, Ab 0.01 ug/ml
Procedure: as §1

[9] = target: T1, human PD-L1 (hPD-L1) expressed on …; experiment: competition FACS, hPD-L1 300.19 cells, signal = bound hPD-1-mIgG2a, Ab approx 10 ug/ml
Procedure: as §2

[10] = target: T1, human PD-L1 (hPD-L1) expressed on …; experiment: competition FACS, hPD-L1 300.19 cells, signal = bound hPD-1-mIgG2a, Ab 0.1 ug/ml
Procedure: as §2

[11] = target: T1, human PD-L1 (hPD-L1) expressed on …; experiment: FACS, hPD-L1 300.19 cells, assay 1, Ab approx 10 ug/ml
Procedure: as §1

[12] = target: T1, human PD-L1 (hPD-L1) expressed on …; experiment: competition FACS, hPD-L1 300.19 cells, signal = bound hPD-1-mIgG2a, Ab 0.01 ug/ml
Procedure: as §2

T1 sequence (Q9NZQ7 19-290): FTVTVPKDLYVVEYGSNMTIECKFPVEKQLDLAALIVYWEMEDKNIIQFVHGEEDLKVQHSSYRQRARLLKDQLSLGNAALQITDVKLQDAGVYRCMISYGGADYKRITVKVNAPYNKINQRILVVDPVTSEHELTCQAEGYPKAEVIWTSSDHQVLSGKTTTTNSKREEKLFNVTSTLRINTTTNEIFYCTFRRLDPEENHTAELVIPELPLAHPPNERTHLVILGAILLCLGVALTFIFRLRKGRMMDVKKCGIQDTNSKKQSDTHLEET

B1: Ab-52 (antibody, V domains shown)
VH: QVQLQESGGGVVQPGRSLRLSCSASGFTFSRHGMHWVRQAPGKGLEWVAVISHDGSVKYYADSMKGRFSISRDNSNNTLYLQMDSLRADDTAVYYCARGLSYQVSGWFDPWGQGTLVTVSS
VL: NFMLTQPHSVSESPGKTVTISCTRSSGSIASNYVQWYQQRPGSAPTTVIYEDNQRPSGVPDRFSGSIDSSSNSASLTISGLKTEDEADYYCQSYDSTTPSVFGGGTKLTVL
notes: also called huPD-L1 Ab # 52
Cells PE-A Mean [1]: 21400 MFI | Cells PE-A Mean [2]: 2690 MFI | Cells PE-A Mean (bound hPD-1-mIgG2a) [3]: 2070 MFI | Cells PE-A Mean [4]: 37200 MFI | Cells PE-A Mean [5]: 34900 MFI | Cells PE-A Mean [6]: 5610 MFI | Cells PE-A Mean [7]: 14700 MFI | Cells PE-A Mean [8]: 1070 MFI | Cells PE-A Mean (bound hPD-1-mIgG2a) [9]: 380 MFI | Cells PE-A Mean (bound hPD-1-mIgG2a) [10]: 6750 MFI | Cells PE-A Mean [11]: 28400 MFI | Cells PE-A Mean (bound hPD-1-mIgG2a) [12]: 11900 MFI

B2: Ab-14 (antibody, V domains shown)
VH: QVQLVQSGAEVKKPGASVKVSCKASGYTFTSYGISWVRQAPGQGLEWMGWISAYNGNTNYAQKLQGRVTMTTDTSTSTAYMELRSLRSDDTAVYYCARALPSGTILVGGWFDPWGQGTLVTVSS
VL: NFMLTQPHSVSESPGKTVTISCTRSSGNIASNYVQWYQQRPGSAPTTVIYEDNQRPSGVPDRFSGSIDSSSNSASLTISGLKTEDEADYYCQSYDSSNLWVFGGGTKLTVL
notes: also called huPD-L1 Ab # 14
Cells PE-A Mean [1]: 23300 MFI | Cells PE-A Mean [2]: 3700 MFI | Cells PE-A Mean (bound hPD-1-mIgG2a) [3]: 12000 MFI | Cells PE-A Mean [4]: 77900 MFI | Cells PE-A Mean [5]: 53200 MFI | Cells PE-A Mean [6]: 8100 MFI | Cells PE-A Mean [7]: 17700 MFI | Cells PE-A Mean [8]: 1650 MFI | Cells PE-A Mean (bound hPD-1-mIgG2a) [9]: 696 MFI | Cells PE-A Mean (bound hPD-1-mIgG2a) [10]: 14900 MFI | Cells PE-A Mean [11]: 41500 MFI | Cells PE-A Mean (bound hPD-1-mIgG2a) [12]: 15800 MFI

B3: Ab-50 (antibody, V domains shown)
VH: QVQLVQSGGEVKKPGASVKVSCKASGYTLSSHGITWVRQAPGQGLEWMGWISAHNGHASNAQKVEDRVTMTTDTSTNTAYMELRSLTADDTAVYYCARVHAALYYGMDVWGQGTLVTVSS
VL: QSVLTQPPSVSVAPGQTARITCGGNNIGSKGVHWYQQKPGQAPVLVVYDDSDRPSGIPERFSGSNSGNTATLTISRVEAGDEADYYCQVWDSSSDHWVFGGGTKLTVL
notes: also called huPD-L1 Ab # 50
Cells PE-A Mean [1]: 42100 MFI | Cells PE-A Mean [2]: 5200 MFI | Cells PE-A Mean (bound hPD-1-mIgG2a) [3]: 156 MFI | Cells PE-A Mean [4]: 69600 MFI | Cells PE-A Mean [5]: 63400 MFI | Cells PE-A Mean [6]: 15100 MFI | Cells PE-A Mean [7]: 28700 MFI | Cells PE-A Mean [8]: 2690 MFI | Cells PE-A Mean (bound hPD-1-mIgG2a) [9]: 207 MFI | Cells PE-A Mean (bound hPD-1-mIgG2a) [10]: 2800 MFI | Cells PE-A Mean [11]: 49400 MFI | Cells PE-A Mean (bound hPD-1-mIgG2a) [12]: 12500 MFI

B4: Ab-55 (antibody, V domains shown)
VH: QVQLVQSGAEVKKPGASVKVSCKASGYTFTSYGISWVRQAPGQGLEWMGWTSPHNGLTAFAQILEGRVTMTTDTSTNTAYMELRNLTFDDTAVYFCAKVHPVFSYALDVWGQGTLVTVSS
VL: NFMLTQPHSVSESPGKTVTISCTRSSGSIASNYVQWYQQRPGSSPTTVIYEDNQRPSGVPDRFSGSIDTSSNSASLTISGLKTKDEADYYCQSYDGITVIFGGGTKLTVL
notes: also called huPD-L1 Ab # 55
Cells PE-A Mean [1]: 9650 MFI | Cells PE-A Mean [2]: 1760 MFI | Cells PE-A Mean (bound hPD-1-mIgG2a) [3]: 3620 MFI | Cells PE-A Mean [4]: 42400 MFI | Cells PE-A Mean [5]: 26500 MFI | Cells PE-A Mean [6]: 2300 MFI | Cells PE-A Mean [7]: 8910 MFI | Cells PE-A Mean [8]: 543 MFI | Cells PE-A Mean (bound hPD-1-mIgG2a) [9]: 150 MFI | Cells PE-A Mean (bound hPD-1-mIgG2a) [10]: 9140 MFI | Cells PE-A Mean [11]: 24400 MFI | Cells PE-A Mean (bound hPD-1-mIgG2a) [12]: 12900 MFI

B5: Ab-30 (antibody, V domains shown)
VH: QVQLVQSGGSVVRPGESLRLSCVASGFIFDNYDMSWVRQVPGKGLEWVSRVNWNGGSTTYADAVKGRFTISRDNTKNSLYLQMNNLRAEDTAVYYCVREFVGAYDLWGQGTTVTVSS
VL: QSALTQPASVSGSPGQSITISCTGTSSDVGGYNYVSWYQQHPGKAPKLMIYDVSNRPSGVSNRFSGSKSGNTASLTISGLQAEDEADYYCSSYTSSTLPFGGGTKLTVL
notes: also called huPD-L1 Ab # 30
Cells PE-A Mean [1]: 37500 MFI | Cells PE-A Mean [2]: 7720 MFI | Cells PE-A Mean (bound hPD-1-mIgG2a) [3]: 661 MFI | Cells PE-A Mean [4]: 67300 MFI | Cells PE-A Mean [5]: 61200 MFI | Cells PE-A Mean [6]: 17500 MFI | Cells PE-A Mean [7]: 39100 MFI | Cells PE-A Mean [8]: 3510 MFI | Cells PE-A Mean (bound hPD-1-mIgG2a) [9]: 244 MFI | Cells PE-A Mean (bound hPD-1-mIgG2a) [10]: 4780 MFI | Cells PE-A Mean [11]: 47600 MFI | Cells PE-A Mean (bound hPD-1-mIgG2a) [12]: 11600 MFI

B6: Ab-31 (antibody, V domains shown)
VH: QVQLVQSGAEVKKPGATVKVSCKVFGDTFRGLYIHWVRQAPGQGLEWMGGIIPIFGTANYAQKFQGRVTITTDESTSTAYMELSSLRSEDTAVYYCASGLRWGIWGWFDPWGQGTLVTVSS
VL: EIVLTQSPATLSLSPGERATLSCRASQSIGNSLAWYQQKPGQAPRLLMYGASSRATGIPDRFSGSGAGTDFTLTISSLEPEDFATYYCQQHTIPTFSFGPGTKVEVK
notes: also called huPD-L1 Ab # 31
Cells PE-A Mean [1]: 44200 MFI | Cells PE-A Mean [2]: 6830 MFI | Cells PE-A Mean (bound hPD-1-mIgG2a) [3]: 623 MFI | Cells PE-A Mean [4]: 76400 MFI | Cells PE-A Mean [5]: 71000 MFI | Cells PE-A Mean [6]: 12500 MFI | Cells PE-A Mean [7]: 37700 MFI | Cells PE-A Mean [8]: 2830 MFI | Cells PE-A Mean (bound hPD-1-mIgG2a) [9]: 157 MFI | Cells PE-A Mean (bound hPD-1-mIgG2a) [10]: 7930 MFI | Cells PE-A Mean [11]: 53800 MFI | Cells PE-A Mean (bound hPD-1-mIgG2a) [12]: 11900 MFI

B7: Ab-42 (antibody, V domains shown)
VH: QVQLVQSGAEVKKPGSSVKVSCKASGGTFSSYAISWVRQAPGQGLEWMGGIIPIFGTANYAQKFQGRVTITADKSTSTAYMELSSLRSEDTAVYYCARGRQMFGAGIDFWGPGTLVTVSS
VL: NFMLTQPHSVSESPGKTVTISCTRSSGSIDSNYVQWYQQRPGSAPTTVIYEDNQRPSGVPDRFSGSIDSSSNSASLTISGLKTEDEADYYCQSYDSNNRHVIFGGGTKLTVL
notes: also called huPD-L1 Ab # 42; mAb42
Cells PE-A Mean [1]: 40900 MFI | Cells PE-A Mean [2]: 11600 MFI | Cells PE-A Mean (bound hPD-1-mIgG2a) [3]: 142 MFI | Cells PE-A Mean [4]: 76800 MFI | Cells PE-A Mean [5]: 72100 MFI | Cells PE-A Mean [6]: 14900 MFI | Cells PE-A Mean [7]: 49400 MFI | Cells PE-A Mean [8]: 2080 MFI | Cells PE-A Mean (bound hPD-1-mIgG2a) [9]: 139 MFI | Cells PE-A Mean (bound hPD-1-mIgG2a) [10]: 3140 MFI | Cells PE-A Mean [11]: 53600 MFI | Cells PE-A Mean (bound hPD-1-mIgG2a) [12]: 11800 MFI
